{
  "source": "paper PMC2737813",
  "about": "(Cell host & microbe, 2009)",
  "binders": {"B1": {"name": "GST-PR8 wt NS1 (natural protein)", "chain": "MDPNTVSSFQVDCFLWHVRKRVADQELGDAPFLDRLRRDQKSLRGRGSTLGLDIETATRAGKQIVERILKEESDEALKMTMASVPASRYLTDMTLEEMSRDWSMLIPKQKVAGPLCIRMDQAIMDKNIILKANFSVIFDRLETLILLRAFTEEGAIVGEISPLPSLPGHTAEDVKNAVGVLIGGLEWNDNTVRVSETLQRFAWRSSNENGRPPLTPKQKREMAGTIRSEV"}},
  "biological_target": "MBP-TRIM25-FLAG (human, UniProt Q14258 1-630)",
  "sequence (Q14258 whole entry)": "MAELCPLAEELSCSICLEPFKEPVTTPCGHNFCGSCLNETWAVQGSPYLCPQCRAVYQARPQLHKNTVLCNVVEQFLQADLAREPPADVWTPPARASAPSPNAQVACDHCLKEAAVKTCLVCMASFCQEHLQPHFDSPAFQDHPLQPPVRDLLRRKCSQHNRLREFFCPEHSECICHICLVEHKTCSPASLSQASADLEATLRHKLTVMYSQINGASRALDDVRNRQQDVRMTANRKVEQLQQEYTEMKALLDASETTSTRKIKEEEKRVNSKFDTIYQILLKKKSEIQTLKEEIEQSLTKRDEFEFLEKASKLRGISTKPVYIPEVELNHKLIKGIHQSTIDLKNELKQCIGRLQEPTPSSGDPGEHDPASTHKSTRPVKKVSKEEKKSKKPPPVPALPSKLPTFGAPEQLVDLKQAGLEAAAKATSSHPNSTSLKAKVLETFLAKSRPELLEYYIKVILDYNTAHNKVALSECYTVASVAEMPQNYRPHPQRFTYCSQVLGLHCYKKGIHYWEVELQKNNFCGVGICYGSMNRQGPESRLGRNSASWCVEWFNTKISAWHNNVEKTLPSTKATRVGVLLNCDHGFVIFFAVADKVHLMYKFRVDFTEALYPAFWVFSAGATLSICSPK",
  "assay": "pull-down",
  "data": [
    {"binder": "B1", "values": [
      {"measurement": "binding result", "result": "binds"}
    ]}
  ]
}
